# Measured values published in the DeepSol protein solubility set.
# Assay: soluble on expression in E. coli; label from the status in PepcDB or PDB records
row,Sequence,soluble on expression in E. coli
1,MSALYRRFRPLTFQEVVGQEHVKEPLLKAIREGRLAQAYLFSGPRGVGKTTTARLLAMAVGCQGEDPPCGVCPHCQAVQRGAHPDVVEIDAASNNSVEDVRELRERIHLAPLSAPRKVFILDEAHMLSKSAFNALLKTLEEPPPHVLFVFATTEPERMPPTILSRTQHFRFRRLTEEEIAFKLRRILEAVGREAEEEALLLLARLADGALRDAESLLERFLLLEGPLTRKEVERALGLPPREALAEIAASLARGKTAEALGLARRLYGEGYAPRSLVSGLLEVFREGLYAAFGLAGTPLPAPPQALIAAMTALDEAMERLARRSDALSLEVALLEAGRALAAEALPQPTGAPSPEVGPKPESPPAPEPPRPEEAPDLRERWRAFLEALRPTLRAFVREARPEVREGQLCLAFPEDKAFHYRKASEQKARLLPLAQAHFGVEEVVLVLEGEKKSLSPRPRPAPPPEAPAPPGPPEEEVEAEEAAEEAPEEALRRVVRLLGGRVLWVRRPRTREAPEEEPLSQDEIGGTGI,soluble
2,MGSDKIHHHHHHAQYVVTGGSGSPMKASQSSGDSAERLEVYLVYGMDNVTISYTSSSSSSHQWYRYKTKRLEAEKVASTQNGTTSTIRNVEEGYGYFVEEGAVSRYVWIVDYSKYTLNISNLHVSDNSDPCSGLVLAGTGTIQPIYYYWPNTGTRRELSRQFDVIYNTLEYNSDKKEYTSKQETAVIEGNLFGKSIPAPWCDTEICVKGDYFARHFGKEVTLCIDEYQAAAVDAHIDTLLIEQEAPNMNTTKSGYCAPATVQFSAIANTPTAALFNWKIYRQGEEDNPVVRFTGEEVDYTFNQSGTFIIKLEVSDQSTTCSTEDEVQIDISESYLMIPNAFSPGTTPGINDEFRVAYKSLVKFKAWIFNRWGLQMYYWTDPAQGWDGKKGGKYVQPGVYFYVIEAEGSDGIKYKEKGDINILRPKTIQDENENIQE,not soluble
3,MAKPSFSCSACGASFTKWSGRCEGCGDWNTISQDAGLSAGPAKKSLGAKRGRAVTLTDLASEEAPPPRAMSGIGELDRVLGGGLVPASAILVGGDPGIGKSTLLLQAVAAFARKGLKTLYVSGEEASAQVRMRARRLGLADAPVQLAAETNLRDILTTLEAEKPGLVIIDSIQTMWADNVDSAPGSVSQVRASAHELTTFAKRTGISVIMVGHVTKDGQIAGPRVVEHMVDTVLYFEGERGHQFRILRSVKNRFGAADEIGVFEMTGAGLAEVTNPSALFLSERGAPSPGSVVFAGIEGTRPVLVELQALVAPSPHSQPRRTVVGWDGGRLAMILAVLEARCGIPFAGLDVYLNVAGGLKISEPAADLAVAAALLSAREDRALPGDTVIFGEISLSGALRPASQTENRLKEAQKLGFTSAIAPAGGKTGTLEGLTMTRPTDLVGFVGEFFGAGLEHHHHHH,not soluble
4,SADKEKKKKESILDLSKYIDKTIRVKFQGGREASGILKGFDPLLNLVLDGTIEYMRDPDDQYKLTEDTRQLGLVVCRGTSVVLICPQDGMEAIPNPFIQQQDA,soluble
5,MSLSNSPLPPNATPMERALAAVTERLEAIPLPYPDLWNPDTCPAGHLPWLAWTLSVDDWKADWSDAVKRSRLRSAMAIQRRKGTANSVRMVVASFGGAVTIREWWQQQPRGQPHTFELTLTLNGSDGRAASARFVDEVIAEVERTKPVRSHFGFVQGLQATGNVSLVTGVRIINYRRLSMMAQGEGHHHHHH,not soluble
6,MGSDKIHHHHHHMEEYFNGLLKEVDQRMATTAPGMDGKEVIGVCREMVSYLKGKNRELKEYALAHPFAGDAKEILYFKYYKPALTGRLLYYYRVYQIESGCPACLRVAEPYYRKAMERAERMMERYLPFYQYYHSGATYRDSYYFLRAKGELSPESGSFVLDEEAEFSTGYDILAARLISVEMLLVHLSRRMERAAQGTETEAVPEKEHRWTNTKVAAILLVYGIHVTGSVDEGNAEIGELAALFEKHFHVDLGNVYHAFGRLRGQQNPTAFLDEMKERLLKKMRDMDSR,not soluble
7,GPGSMSKQKKEVVINLDEVDEQTGYKSAELFVWLKFDETYLQKPEDDREADVDAWVDAFCEQMEEEGMNYDRNFVRSVCVLGIYAGARDEFQQRMGSGKAVYPNGDRYDGEFFEGKKHGTGRYCFVSRGKSECDRIVEKEMQKLGGAVPDEQFITNVAEKYKISRQIVSWIIEYGVYPCYHGDYVRGVRTGQGLMKNKDGTVYKGDFLANKRHGQGMFYYLNGDIFSGTWRNGLKHGYGTYHFAGGSEYRGSWVDGVFTQGQWIFPDGTYYEGLFNKKNRPCDDAASMHFPSIKMAQTGVFRRGVWAPSSALQVCEETPVDGMSWID,soluble
8,MAHHHHHHMGGCVVSVMAKRNAAQVMPDPRAEALERRRAQCGGNFVQRVPGTESEHASAIYRIAGVTAEQHEAILAAAAARPTFYTTLMRHCAERTDQRVLGYRPVKCVTKEPAPSKSSGSTSEPAKKERLMSITHFDEVVHVTYSEMEERIFHFGAGLAALGVTANGNVSIYLDTCVEWLIGIYGIWSCSAVAATVYANLGEAALAHALHETESQAILCGSVNVANVLKLMKNGVMPQVPIIHVGALPASLDTHGVQVVSFKQVEMIGAAHLEGGAAKGTGPLNDDDLALIMYTSGTTGDPKGVMHTHRTLAAGLHTLEPRVIDLLGQPRPDDVYLSYLPMAHIMEFTITNLFIFRGAFIGFGTPRTLTDTTARPHGDLLTFNPSMLAGVPRIFDTLKKAVEAKLPPVGTLKRQVFDHAYQSRLAAMKEGKDTPFWNEKVFAAPRAVLGSRLRIMLSGGGPLSAATHEFVNVVFGRVVIGYGLTETICVGAIQIPGDTETNVTGLMEPGQEIKLLDIDEYKHTDTPEPRGEMLSRGPYLFKGYYKQPELTREVLDEDGWFHTGDVGSFTADGKMRIVGRVKALAKNCLGEYIALEALEAVYSSNELLQPNGVCVLVHPDKPYITALALTDEARATSFAAKHGIEGTYPALLKDQRFQQAAAISMADTARASNRASFECVKRVRVIDDEWTPENEILTAAQKLKRRVIDAQYAQTIAELFADD,not soluble
9,MCSVKPKYISLPEQNSLCSLPNSGCCQVEVKIGRSKWEQQKAILVKVDGEPAGKIFIYSQPLIGQMYPLHELKSMGVICEKAGDFLVNLVTERGLKLTFKPIGSTANCFVTALVSGNFTSLTHETHIKTPLQNQEATTSPTIESDLTDKPDTNVYTGSREGYVAPSEKGSNEKKKEVVPNGGDKSVENKKGSDRNVKKTPSKTVTKPLLSESRKRKEAKTLATTQSQDLPAPTKDEPERTNSEPDNGEQEKIKKEKKKGTETSLKDGKNKLNEKIVKPAPTTTPDAGNGGLTPGKEDNKKTVTTSSVEIEVPEKKKAVENAGIIKIS,not soluble
10,MAHHHHHHMYVLEGFYESVYNARWHHVVEVPDGEGTGMEVREGKSPQSWTYRAAGEFLEKNDGEEQSGALRPRLMVLTSGKGWPYSWEEDESTPDCYVNCEVDRVWQIVRNDLTELLGPDPGADFRPERRVLIGTPGIGKSLAAGSYLLYQLLQYDAEQLPMVAYVFAGRK,not soluble
11,MKVGIVLNPHAGGGFDDLKRRVVVRVLKKLDGEFVTADKVAELLGIEAERVKVKETNTRLDTVNLVKALDGNVDVIAVFGGDGTVSDAASAKPQTPLLCIGIGTTNVSPALCPPDFDRLEEVEMRGLVVKFGGEERVAFNDVVVGSTILSTVDGKRVQVDARRYMRGEKVIATPRKFRARVEVGERVVEGVFGNIFVAMTDRRFLGKGIAGGASLSAFLGFKGVVACVSEGIVVSTYTKEDLRRVEPIVTSTISFDDEVVKIDADEVVSCDGNPLGVGRAEVAIEDGVVRVLKPFKEEE,soluble
12,MSLGRNEPVIGITPSFDYNENKMYINNIYCEAIILSGGMPVLLPVTEDEGLLSQMVEEFDGFLLSGGPDVDAVHWGEWNYSYNGEISPHRDKMELFIAKEAVAKDKPIFGICRGIQVLNVALGGTLYQDIYSQNKEKRLIKHSQNAPRWYPVHKVMLKAGSKVRNAHGAESIAVNSFHHQAVREPAPDFIVTGTSEDGIIEAIEHKNCKFAVGVQWHPEHMWKRDLSFLNIFKYFVSSCLEGHHHHHH,soluble
13,MTSEHRSASVTPRHISFFNIPGHGHVNPSLGIVQELVARGHRVSYAITDEFAAQVKAAGATPVVYDSILPKESNPEESWPEDQESAMGLFLDEAVRVLPQLEDAYADDRPDLIVYDIASWPAPVLGRKWDIPFVQLSPTFVAYEGFEEDVPAVQDPTADRGEEAAAPAGTGDAEEGAEAEDGLVRFFTRLSAFLEEHGVDTPATEFLIAPNRCIVALPRTFQIKGDTVGDNYTFVGPTYGDRSHQGTWEGPGDGRPVLLIALGSAFTDHLDFYRTCLSAVDGLDWHVVLSVGRFVDPADLGEVPPNVEVHQWVPQLDILTKASAFITHAGMGSTMEALSNAVPMVAVPQIAEQTMNAERIVELGLGRHIPRDQVTAEKLREAVLAVASDPGVAERLAAVRQEIREAGGARAAADILEGILAEAG,soluble
14,MLRVLVGAVLPAMLLAAPPPINKLALFPDKSAWCEAKNITQIVGHSGCEAKSIQNRACLGQCFSYSVPNTFPQSTESLVHCDSCMPAQSMWEIVTLECPGHEEVPRVDKLVEKILHCSCQACGKEPSHEGLSVYVQGEDGPGSQPGTHPHPHPHPHPGGQTPEPEDPPGAPHTEEEGAED,soluble
15,MLSHMVLTRQDIGRAASYYEDGADDYYAKDGDASEWQGKGAEELGLSGEVDSKRFRELLAGNIGEGHRIMRSATRQDSKERIGLDLTFSAPKSVSLQALVAGDAEIIKAHDRAVARTLEQAEARAQARQKIQGKTRIETTGNLVIGKFRHETSRERDPQLHTHAVILNMTKRSDGQWRALKNDEIVKATRYLGAVYNAELAHELQKLGYQLRYGKDGNFDLAHIDRQQIEGFSKRTEQIAEWYAARGLDPNSVSLEQKQAAKVLSRAKKTSVDREALRAEWQATAKELGIDFS,soluble
16,MNVEKLKKMKGKEKIVMVTAYDAPSARIARDAGIDVILVGDSLGNNVLGYENTIPVTMEEMLIHVAAVKRGAPDAFIVADMPFLSYQTSVEKAVENAGKFLKVGANAVKIEGGEEFGELVQKLVESGIPVMGHIGLTPQFVNRFGGYRVQGKTEKNREYLLRSARELEKRGAFAIVLELVVEEVAKEITESVSIPTIGIGSGRFCDGQVLVWHDLLGLNPDFAPRFSKKYANLYEVILKALQEFRREVKKGLFPTEEHSFTDKSKGGVSS,soluble
17,MRKQALHPRTAVINKAQKNQSKRARSDALLWLAANFPEAFDNSLRIRPLKIGIMSDILQHAEKAEQVGISKSKLREAVVLFTRRLDYLACLKAREVRIDLHGNPVAEVTEEEAEHASMKIKKRVEKSVKNARKQVNAKAANHSHVNSQPSAVSSVKPMNSFDSHPEPLLPIYPLRSSTYASQNVAMQSAKSPSVVVKHKAPKQYDPDAVARLKEKLGLSRKAEEKKETTE,not soluble
18,NPNPISIPIDLSQAGSVVEKEVKIEESWSYHLILQFAVHDRKEDGGLDGKRVWKFLGFNSYDPRDGKQVGYVDYRLAKSELGDLIDETYDCDGTVVPIKITIHQINQDNTKKLIADNLYMTKGNGSGAYTRDITTISLDKGKYIFRIENIEAFSEMIGRKVDFTIYINKRDK,soluble
19,MEDRNITEEDRVCPQLPEFDEQANVQTDLKKMKPGDAIGKNWKVVKAIQSDKGFNTIYVAEHVQKKKKMAAVKVERKTEAIKMLQFELFVLLTVEKKNQCKQFCKLFEKGNEKEYNWIAITLCGKSLRALRKNQPTGKLTVACGLSVAQQCLKGLEELHRMGFIHRNVAPSVFAIGRYTGDNQSDLRNIYILDFGFAHQYMIKDGTLKPPSAHPWKYVGSLRHMPRAAYSKVEFSRMEDLEMWFYMSVELVKGCLPWAHLKKPKEVHDYQKLCRNGLQMREMLGGLPPEFVDIMQIVDKLSFTDTPNYTEIYGLLTNAILFSGKNEFPYDWEEAEINEFKNPQKPSVEQAT,not soluble
